From patent US20090143241A1 come the findings set out here.

The target of the test is ClpXP protease (E. coli ClpX6 with ClpP14) (E. coli) (UniProt P0A6H1). Put plainly: cell-based or functional assay.
Chain of ClpXP protease (E. coli ClpX6 with ClpP14) (E. coli) (P0A6H1 whole entry, chain 1 of 2): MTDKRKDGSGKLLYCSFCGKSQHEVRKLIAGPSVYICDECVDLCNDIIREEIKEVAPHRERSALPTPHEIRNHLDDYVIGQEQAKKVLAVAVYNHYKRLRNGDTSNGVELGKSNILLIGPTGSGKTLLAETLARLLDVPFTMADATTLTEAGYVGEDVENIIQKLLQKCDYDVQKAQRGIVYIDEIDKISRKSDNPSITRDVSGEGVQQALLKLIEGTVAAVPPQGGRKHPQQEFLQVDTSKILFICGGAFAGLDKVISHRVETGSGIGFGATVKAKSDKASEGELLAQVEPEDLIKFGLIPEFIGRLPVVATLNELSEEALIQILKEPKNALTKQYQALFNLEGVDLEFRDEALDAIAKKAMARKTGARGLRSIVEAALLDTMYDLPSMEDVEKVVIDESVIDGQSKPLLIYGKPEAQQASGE
Chain of ClpXP protease (E. coli ClpX6 with ClpP14) (E. coli) (P0A6G7 15-207, chain 2 of 2, further chain): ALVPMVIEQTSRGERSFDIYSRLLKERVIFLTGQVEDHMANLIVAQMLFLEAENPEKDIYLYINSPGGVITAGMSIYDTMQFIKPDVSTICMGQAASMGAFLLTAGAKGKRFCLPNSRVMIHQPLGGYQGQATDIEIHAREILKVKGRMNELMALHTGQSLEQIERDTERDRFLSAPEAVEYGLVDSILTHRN

For “λ O protein, N-terminally His6-tagged (from UniProt P03688 1-333)”, the half-life of λ O with ClpXP, no inhibitor is 35 min.
